Literature values in patent US20250320497A1, “COMPOSITIONS AND METHODS FOR TREATING HEPATITIS B VIRUS (HBV) INFECTION AND HBV-ASSOCIATED DISEASES” (priority 2022, published 2025).

Tested on: chronic HBV infection
Details: Phase 1, patients with chronic HBV infection

B1: GC 1102: fully human anti-HBsAg mAb in development for chronic HBV infection (antibody, chains of the INN, looked up, V domains shown)
VH: EVQLVESGGGLVKPGGSLRLSCSASGFSLTKYKMTWVRQAPGKGLEWVSSISSTSRDIDYADSVKGRFTISRDNAKNSLFLQMSSLRVDDTAVYYCTRDGWLWGWDVRSNYYYNALDVWGQGTTVTVSS
VL: DIVVTQSPSSLSASVGDRVTITCRASQGIYNSIAWYQQKPGKAPKLLLYSTSTLLSGVPSRFSGSGSGTDYTLTITNLQPEDFATYYCQQYFVTPETFGQGTKLEIK
lowering of HBsAg: 2-3 log10 IU/mL
tolerability: well tolerated
